Measurements: patent publication US20130244255A1 (published 2013)

How the values were obtained:
[1] = biological target: T1, GPNMB (CG56972) as expressed by human cell lines (human, UniProt Q14956 23-492); experiment: FACS on HUT-102 cells, antibody 1 ug/mL
T1 construct: Endogenous or transfected full-length protein on cells (FACS, killing assays) or in cell lysates (immunoprecipitation, blot); also called native GPNMB protein
T1 sequence: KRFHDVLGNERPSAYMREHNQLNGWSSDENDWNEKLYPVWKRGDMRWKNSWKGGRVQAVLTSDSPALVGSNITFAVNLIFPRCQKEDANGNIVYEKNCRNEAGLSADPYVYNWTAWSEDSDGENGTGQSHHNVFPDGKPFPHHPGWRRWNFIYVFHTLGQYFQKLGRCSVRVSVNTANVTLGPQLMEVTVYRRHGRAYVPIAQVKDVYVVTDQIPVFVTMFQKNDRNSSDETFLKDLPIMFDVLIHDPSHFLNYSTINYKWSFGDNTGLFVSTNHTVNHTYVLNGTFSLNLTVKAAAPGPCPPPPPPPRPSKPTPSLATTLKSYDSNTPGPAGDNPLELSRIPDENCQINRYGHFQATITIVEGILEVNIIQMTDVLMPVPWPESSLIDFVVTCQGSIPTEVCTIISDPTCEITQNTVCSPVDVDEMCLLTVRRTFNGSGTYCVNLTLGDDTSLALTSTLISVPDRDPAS

[2] = biological target: T1, GPNMB (CG56972) as expressed by human …; experiment: FACS on M14 cells
[3] = biological target: T1, GPNMB (CG56972) as expressed by human …; experiment: FACS on HEMNLP cells
[4] = biological target: T1, GPNMB (CG56972) as expressed by human …; experiment: FACS on SNB-78 cells, CR011 10 ug/mL
Method: (§1) Quantitative analysis of CG56972 expression on the surface of cell lines was determined by flow cytometry (FACS). […] Cells were fixed in 1% paraformaldehyde/PBS and examined on a Becton Dickinson FACSCalibur flow cytometer. Data analysis was performed with Becton Dickinson Cell Quest software version 3.3 and the geometric mean fluorescence intensity ratio (GMR) was determined for each cell type.

[5] = biological target: T1, GPNMB (CG56972) as expressed by human …; experiment: FACS on D450-MG cells, CR011 10 ug/mL
Method: as §1

[6] = biological target: T1, GPNMB (CG56972) as expressed by human …; experiment: FACS on EOL-1 cells, antibody 1 ug/mL
[7] = biological target: T1, GPNMB (CG56972) as expressed by human …; experiment: FACS on WM115 cells
[8] = biological target: T1, GPNMB (CG56972) as expressed by human …; experiment: FACS on UACC-62 cells, antibody 1 ug/mL
Method: The specificity of anti-GPNMB antibodies to cell membrane-bound GPNMB protein expressed by melanoma cancer cell line, UACC-62 was analyzed by FACS analysis. […] Cells were washed twice with PBS (Ca and Mg free), incubated with Versene at 37° C. until cells detached, counted and aliquoted at 1 million cells per assay tube. Cells were then washed twice and resuspended in ice-cold FACS buffer (0.01 M HEPES, 0.15M NaCl, 0.1% NaN₃ and 4% FBS). Primary antibody at 1 μg/mL was added to the cells. Cells were incubated on ice for 30 min, washed 2-3 times and resuspended in 1 mL of ice-cold FACS buffer. R-PE-conjugated goat anti-human antibody (Jackson ImmunoResearch Laboratory) at 1:100 dilution was added and cells were incubated on ice for 30 min. After washing 3 times with 1 mL of ice-cold FACS buffer, cells were fixed with 0.5-1 mL of 1% formaldehyde in PBS and analyzed by flow cytometry.

[9] = biological target: T1, GPNMB (CG56972) as expressed by human …; experiment: FACS on U87MG cells, CR011 10 ug/mL
Method: as §1

[10] = biological target: T1, GPNMB (CG56972) as expressed by human …; experiment: FACS on HT144 cells
[11] = biological target: T1, GPNMB (CG56972) as expressed by human …; experiment: FACS on HUT-78 cells, antibody 1 ug/mL
[12] = biological target: T1, GPNMB (CG56972) as expressed by human …; experiment: FACS on RPMI-7951 cells
[13] = biological target: T1, GPNMB (CG56972) as expressed by human …; experiment: FACS on SR cells, antibody 1 ug/mL
Method: (§2) Lymphoma or leukemia derived cells were washed twice with ice-cold FACS buffer and resuspended at 1 million cells per assay tube. […] Cells were then washed 2-3 times and resuspended in 1 mL of ice-cold FACS buffer. R-PE-conjugated goat anti-human antibody at 1:100 dilution was added and cells were incubated on ice for 30 min. Cells were washed 3 times with 1 mL of ice-cold FACS buffer, fixed with 0.5-1 mL of 1% formaldehyde in PBS and analyzed by Flow Cytometry.

[14] = biological target: T1, GPNMB (CG56972) as expressed by human …; experiment: FACS on LOXIMVI cells
[15] = biological target: T1, GPNMB (CG56972) as expressed by human …; experiment: FACS on HH cells, antibody 1 ug/mL
[16] = biological target: T1, GPNMB (CG56972) as expressed by human …; experiment: FACS on SK-Mel 2 cells
[17] = biological target: T1, GPNMB (CG56972) as expressed by human …; experiment: FACS on A2058 cells
[18] = biological target: T1, GPNMB (CG56972) as expressed by human …; experiment: FACS on T98G cells, CR011 10 ug/mL
Method: as §1

[19] = biological target: T1, GPNMB (CG56972) as expressed by human …; experiment: FACS on Jurkat cells, antibody 1 ug/mL
Method: as §2

[20] = biological target: T1, GPNMB (CG56972) as expressed by human …; experiment: FACS on D392-MG cells, CR011 10 ug/mL
Method: as §1

[21] = biological target: T1, GPNMB (CG56972) as expressed by human …; experiment: FACS on UACC-257 cells
[22] = biological target: T1, GPNMB (CG56972) as expressed by human …; experiment: FACS on MOLT-4 cells, antibody 1 ug/mL
Method: as §2

[23] = biological target: T1, GPNMB (CG56972) as expressed by human …; experiment: FACS on WM-266-4 cells
[24] = biological target: T1, GPNMB (CG56972) as expressed by human …; experiment: cell-based or functional assay
[25] = biological target: T1, GPNMB (CG56972) as expressed by human …; experiment: FACS on SW 1783 cells, CR011 10 ug/mL
Method: as §1

B1: CR011 mAb 1.15.1 (IgG2) (antibody)
heavy: QVQLQESGPGLVKPSQTLSLTCTVSGGSISSFNYYWSWIRHHPGKGLEWIGYIYYSGSTYSNPSLKSRVTISVDTSKNQFSLTLSSVTAADTAVYYCARGYNWNYFDYWGQGTLVTVSSASTKGPSVFPLAPCSRSTSESTAALGCLVKDYFPEPVTVSWNSGALTSGVHTFPAVLQSSGLYSLSSVVTVPSSNFGTQTYTCNVDHKPSNTKVDKTVERKCCVECPPCPAPPVAGPSVFLFPPKPKDTLMISRTPEVTCVVVDVSHEDPEVQFNWYVDGVEVHNAKTKPREEQFNSTFRVVSVLTVVHQDWLNGKEYKCKVSNKGLPAPIEKTISKTKGQPREPQVYTLPPSREEMTKNQVSLTCLVKGFYPSDIAVEWESNGQPENNYKTTPPMLDSDGSFFLYSKLTVDKSRWQQGNVFSCSVMHEALHNHYTQKSLSLSPGK
VL: not shown
notes: also called CR011.1.15.1; CR011 IgG2
B1 was tested, and the “Geo Mean Ratio” value [1] was 1 ratio, the “Geo Mean Ratio (relative to isotype)” value [2] was 16.1 ratio and the “Geo Mean Ratio (relative to isotype)” value [3] was 10.2 ratio. The “CR011 Fold Shift (GMR)” value [4] was 8.6 fold, the “CR011 Fold Shift (GMR)” value [5] was 1.6 fold and the “Geo Mean Ratio” value [6] was 1 ratio. The “Geo Mean Ratio (relative to isotype)” value [7] was 1.3 ratio, the “Geo Mean Ratio (relative to pK16)” value [8] was 7.89 ratio and the “CR011 Fold Shift (GMR)” value [9] was 1.5 fold. For the same binder, the “Geo Mean Ratio (relative to isotype)” value [10] was 7.4 ratio, the “Geo Mean Ratio” value [11] was 1.5 ratio and the “Geo Mean Ratio (relative to isotype)” value [12] was 6 ratio. The “Geo Mean Ratio” value [13] was 7.1 ratio, the “Geo Mean Ratio (relative to isotype)” value [14] was 1 ratio and the “Geo Mean Ratio” value [15] was 1 ratio. For the same binder, the “Geo Mean Ratio (relative to isotype)” value [16] was 16.5 ratio, the “Geo Mean Ratio (relative to isotype)” value [17] was 4.1 ratio and the “CR011 Fold Shift (GMR)” value [18] was 1.3 fold. The “Geo Mean Ratio” value [19] was 14.7 ratio, the “CR011 Fold Shift (GMR)” value [20] was 3.1 fold and the “Geo Mean Ratio (relative to isotype)” value [21] was 7 ratio. For the same binder, the “Geo Mean Ratio” value [22] was 6.2 ratio, the “Geo Mean Ratio (relative to isotype)” value [23] was 13.6 ratio and the “killing of UACC-62 cells with saporin-conjugated secondary antibody (colony count)” value [24] was greater than 70%. For the same binder, the “CR011 Fold Shift (GMR)” value [25] was 1.1 fold.
